From PMC9352680, “A comprehensive thermodynamic model for RNA binding by the Saccharomyces cerevisiae Pumilio protein PUF4”

T1: PUF4 RNA-binding domain (Saccharomyces cerevisiae, UniProt P25339 537-888)
T1 sequence: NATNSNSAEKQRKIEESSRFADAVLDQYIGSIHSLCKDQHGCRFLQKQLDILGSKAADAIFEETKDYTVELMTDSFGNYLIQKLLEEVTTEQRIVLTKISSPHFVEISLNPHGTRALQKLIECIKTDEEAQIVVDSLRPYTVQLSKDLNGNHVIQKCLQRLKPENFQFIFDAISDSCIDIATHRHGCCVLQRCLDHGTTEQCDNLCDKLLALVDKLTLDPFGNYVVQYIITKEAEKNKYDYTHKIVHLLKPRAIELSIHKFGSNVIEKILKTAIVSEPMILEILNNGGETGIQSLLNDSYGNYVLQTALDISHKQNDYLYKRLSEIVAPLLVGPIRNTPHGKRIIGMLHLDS


These binders were tested against T1, PUF4 RNA-binding domain (assay: Mg; RNA-MaP; 20 mM Na-HEPES pH 7.4, 30 mM KOAc, 0.75 mM MgCl2, 0.1% Tween-20, 5% glycerol, 0.1 mg/mL BSA, 2 mM DTT; 25 C; 0.0125-409.6 nM protein). Settings: tags: N-His6-TEV cleaved; C-SNAP kept, Cy3B-labelled; label: tethered on chip by stalled RNA polymerase.
With ACAAACAAACACUAUUAAGACAAAC (ssRNA) [Id_ii_S3_P4E.4_K4.3_C4.2_[C-2A]_[T-1A]_H4.3_A4.1_F4.1_T4.2_[G10A]_[T11G]] the Kd was > 2.3 µM.
With ACAAACACACACUAUUAGCACAAAC (ssRNA) [Id_ii_S3_P4E.4_K4.3_C4.2_[C-2A]_[T-1C]_H4.3_A4.1_F4.1_T4.2_[T11C]] the Kd was > 2.3 µM.
For ACAAACAGACACUAUUAGAACAAAC (ssRNA) [Id_ii_S3_P4E.4_K4.3_C4.2_[C-2A]_[T-1G]_H4.3_A4.1_F4.1_T4.2_[T11A]], the Kd was > 2.3 µM.
ACAAACCCACACUAUUAACACAAAC (ssRNA) [Id_ii_S3_P4E.4_K4.3_C4.2_[T-1C]_H4.3_A4.1_F4.1_T4.2_[G10A]_[T11C]] was tested, and the Kd was > 2.3 µM.
In the case of ACAAACAUACACUAUUAUAACAAAC (ssRNA) [Id_ii_S3_P4E.4_K4.3_C4.2_[C-2A]_H4.3_A4.1_F4.1_T4.2_[G10T]_[T11A]], the Kd is reported as 0.902 µM.
In the case of UCUCUUUGUAUUCUUCUCUCUU (ssRNA) [Ib_S1_P5E.1_K5.1_C5.1_H5.1_A5.1_[A7C]_F5.1_[A10C]_T5.1], the Kd is reported as 0.0364 µM.
ACAAACUCACACUAUUAUUACAAAC (ssRNA) [Id_ii_S3_P4E.4_K4.3_C4.2_[C-2T]_[T-1C]_H4.3_A4.1_F4.1_T4.2_[G10T]] was tested, and the Kd was > 2.3 µM.
Binder UCUCUUUGUAUUUUUCUCUCUU (ssRNA) [Ib_S1_P5E.1_K5.1_C5.1_H5.1_A5.1_[A7T]_F5.1_[A10C]_T5.1] has a Kd of 0.0238 µM.
In the case of ACAAACCCACACUAUUAAUACAAAC (ssRNA) [Id_ii_S3_P4E.4_K4.3_C4.2_[T-1C]_H4.3_A4.1_F4.1_T4.2_[G10A]], the Kd is reported as > 2.3 µM.
With ACAAACCCACACUAUUAAGACAAAC (ssRNA) [Id_ii_S3_P4E.4_K4.3_C4.2_[T-1C]_H4.3_A4.1_F4.1_T4.2_[G10A]_[T11G]] the Kd was > 2.3 µM.
In the case of ACAAACCGACACUAUUAAAACAAAC (ssRNA) [Id_ii_S3_P4E.4_K4.3_C4.2_[T-1G]_H4.3_A4.1_F4.1_T4.2_[G10A]_[T11A]], the Kd is reported as > 2.3 µM.
UCUCUUUGUAUUCUUUUCUCUU (ssRNA) [Ic_S1_P5E.1_K5.1_C5.1_H5.1_A5.1_[A7C]_F5.1_[A10T]_T5.1] gave a Kd of 0.0286 µM.
For ACAAACCAACACUAUUAAUACAAAC (ssRNA) [Id_ii_S3_P4E.4_K4.3_C4.2_[T-1A]_H4.3_A4.1_F4.1_T4.2_[G10A]], the Kd was > 2.3 µM.
ACAAACAAACACUAUUACCACAAAC (ssRNA) [Id_ii_S3_P4E.4_K4.3_C4.2_[C-2A]_[T-1A]_H4.3_A4.1_F4.1_T4.2_[G10C]_[T11C]] was tested, and the Kd was > 2.3 µM.
With ACAAACUUACACUAUUAAAACAAAC (ssRNA) [Id_ii_S3_P4E.4_K4.3_C4.2_[C-2T]_H4.3_A4.1_F4.1_T4.2_[G10A]_[T11A]] the Kd was > 2.3 µM.
With ACAAACCAACACUAUUACUACAAAC (ssRNA) [Id_ii_S3_P4E.4_K4.3_C4.2_[T-1A]_H4.3_A4.1_F4.1_T4.2_[G10C]] the Kd was > 2.3 µM.
ACAAACUGACACUAUUAUGACAAAC (ssRNA) [Id_ii_S3_P4E.4_K4.3_C4.2_[C-2T]_[T-1G]_H4.3_A4.1_F4.1_T4.2_[G10T]_[T11G]] was tested, and the Kd was > 2.3 µM.
With ACAAACCGACACUAUUAACACAAAC (ssRNA) [Id_ii_S3_P4E.4_K4.3_C4.2_[T-1G]_H4.3_A4.1_F4.1_T4.2_[G10A]_[T11C]] the Kd was > 2.3 µM.
With ACAAACUCACACUAUUAACACAAAC (ssRNA) [Id_ii_S3_P4E.4_K4.3_C4.2_[C-2T]_[T-1C]_H4.3_A4.1_F4.1_T4.2_[G10A]_[T11C]] the Kd was > 2.3 µM.
ACAAACUUACACUAUUAUAACAAAC (ssRNA) [Id_ii_S3_P4E.4_K4.3_C4.2_[C-2T]_H4.3_A4.1_F4.1_T4.2_[G10T]_[T11A]] was tested, and the Kd was 1.64 µM.
ACAAACUGACACUAUUAACACAAAC (ssRNA) [Id_ii_S3_P4E.4_K4.3_C4.2_[C-2T]_[T-1G]_H4.3_A4.1_F4.1_T4.2_[G10A]_[T11C]] was tested, and the Kd was > 2.3 µM.
With ACAAACCAACACUAUUAAGACAAAC (ssRNA) [Id_ii_S3_P4E.4_K4.3_C4.2_[T-1A]_H4.3_A4.1_F4.1_T4.2_[G10A]_[T11G]] the Kd was > 2.3 µM.
ACAAACAUACACUAUUAACACAAAC (ssRNA) [Id_ii_S3_P4E.4_K4.3_C4.2_[C-2A]_H4.3_A4.1_F4.1_T4.2_[G10A]_[T11C]] was tested, and the Kd was 1.47 µM.
In the case of ACAAACUCACACUAUUAAGACAAAC (ssRNA) [Id_ii_S3_P4E.4_K4.3_C4.2_[C-2T]_[T-1C]_H4.3_A4.1_F4.1_T4.2_[G10A]_[T11G]], the Kd is reported as > 2.3 µM.
ACAAACAAACACUAUUAGCACAAAC (ssRNA) [Id_ii_S3_P4E.4_K4.3_C4.2_[C-2A]_[T-1A]_H4.3_A4.1_F4.1_T4.2_[T11C]] was tested, and the Kd was > 2.3 µM.
ACAAACCAACACUAUUACGACAAAC (ssRNA) [Id_ii_S3_P4E.4_K4.3_C4.2_[T-1A]_H4.3_A4.1_F4.1_T4.2_[G10C]_[T11G]] was tested, and the Kd was > 2.3 µM.
In the case of ACAAACACACACUAUUAUUACAAAC (ssRNA) [Id_ii_S3_P4E.4_K4.3_C4.2_[C-2A]_[T-1C]_H4.3_A4.1_F4.1_T4.2_[G10T]], the Kd is reported as > 2.3 µM.
ACAAACUCACACUAUUAGUACAAAC (ssRNA) [Id_ii_S3_P4E.4_K4.3_C4.2_[C-2T]_[T-1C]_H4.3_A4.1_F4.1_T4.2] was tested, and the Kd was > 2.3 µM.
ACAAACUGACACUAUUAUCACAAAC (ssRNA) [Id_ii_S3_P4E.4_K4.3_C4.2_[C-2T]_[T-1G]_H4.3_A4.1_F4.1_T4.2_[G10T]_[T11C]] was tested, and the Kd was > 2.3 µM.
In the case of ACAAACCAACACUAUUAUCACAAAC (ssRNA) [Id_ii_S3_P4E.4_K4.3_C4.2_[T-1A]_H4.3_A4.1_F4.1_T4.2_[G10T]_[T11C]], the Kd is reported as > 2.3 µM.
ACAAACACACACUAUUAACACAAAC (ssRNA) [Id_ii_S3_P4E.4_K4.3_C4.2_[C-2A]_[T-1C]_H4.3_A4.1_F4.1_T4.2_[G10A]_[T11C]] was tested, and the Kd was > 2.3 µM.
Binder ACAAACAUACACUAUUACCACAAAC (ssRNA) [Id_ii_S3_P4E.4_K4.3_C4.2_[C-2A]_H4.3_A4.1_F4.1_T4.2_[G10C]_[T11C]] has a Kd of 0.74 µM.
Work on ACAAACAUACACUAUUAAAACAAAC (ssRNA) [Id_ii_S3_P4E.4_K4.3_C4.2_[C-2A]_H4.3_A4.1_F4.1_T4.2_[G10A]_[T11A]] yielded a Kd of 1.13 µM.
With ACAAACUAACACUAUUACGACAAAC (ssRNA) [Id_ii_S3_P4E.4_K4.3_C4.2_[C-2T]_[T-1A]_H4.3_A4.1_F4.1_T4.2_[G10C]_[T11G]] the Kd was > 2.3 µM.
With ACAAACCGACACUAUUACCACAAAC (ssRNA) [Id_ii_S3_P4E.4_K4.3_C4.2_[T-1G]_H4.3_A4.1_F4.1_T4.2_[G10C]_[T11C]] the Kd was > 2.3 µM.
For ACAAACCGACACUAUUAUGACAAAC (ssRNA) [Id_ii_S3_P4E.4_K4.3_C4.2_[T-1G]_H4.3_A4.1_F4.1_T4.2_[G10T]_[T11G]], the Kd was > 2.3 µM.
For ACAAACCCACACUAUUAAAACAAAC (ssRNA) [Id_ii_S3_P4E.4_K4.3_C4.2_[T-1C]_H4.3_A4.1_F4.1_T4.2_[G10A]_[T11A]], the Kd was > 2.3 µM.
In the case of ACAAACAUACACUAUUAAUACAAAC (ssRNA) [Id_ii_S3_P4E.4_K4.3_C4.2_[C-2A]_H4.3_A4.1_F4.1_T4.2_[G10A]], the Kd is reported as 0.74 µM.
ACAAACACACACUAUUACUACAAAC (ssRNA) [Id_ii_S3_P4E.4_K4.3_C4.2_[C-2A]_[T-1C]_H4.3_A4.1_F4.1_T4.2_[G10C]] was tested, and the Kd was > 2.3 µM.
ACAAACAUACACUAUUAUUACAAAC (ssRNA) [Id_ii_S3_P4E.4_K4.3_C4.2_[C-2A]_H4.3_A4.1_F4.1_T4.2_[G10T]] was tested, and the Kd was 0.6 µM.
UCUCUUUGUAUUGUUUUCUCUU (ssRNA) [Ic_S1_P5E.1_K5.1_C5.1_H5.1_A5.1_[A7G]_F5.1_[A10T]_T5.1] gave a Kd of 0.0429 µM.
ACAAACUUACACUAUUAGAACAAAC (ssRNA) [Id_ii_S3_P4E.4_K4.3_C4.2_[C-2T]_H4.3_A4.1_F4.1_T4.2_[T11A]] was tested, and the Kd was > 2.3 µM.
ACAAACAUACACUAUUAGAACAAAC (ssRNA) [Id_ii_S3_P4E.4_K4.3_C4.2_[C-2A]_H4.3_A4.1_F4.1_T4.2_[T11A]] showed a Kd of 0.846 µM.
With ACAAACUCACACUAUUAAAACAAAC (ssRNA) [Id_ii_S3_P4E.4_K4.3_C4.2_[C-2T]_[T-1C]_H4.3_A4.1_F4.1_T4.2_[G10A]_[T11A]] the Kd was > 2.3 µM.
With ACAAACAAACACUAUUAACACAAAC (ssRNA) [Id_ii_S3_P4E.4_K4.3_C4.2_[C-2A]_[T-1A]_H4.3_A4.1_F4.1_T4.2_[G10A]_[T11C]] the Kd was > 2.3 µM.
In the case of ACAAACCCACACUAUUACCACAAAC (ssRNA) [Id_ii_S3_P4E.4_K4.3_C4.2_[T-1C]_H4.3_A4.1_F4.1_T4.2_[G10C]_[T11C]], the Kd is reported as > 2.3 µM.
With ACAAACCAACACUAUUAACACAAAC (ssRNA) [Id_ii_S3_P4E.4_K4.3_C4.2_[T-1A]_H4.3_A4.1_F4.1_T4.2_[G10A]_[T11C]] the Kd was > 2.3 µM.
For ACAAACCGACACUAUUAUUACAAAC (ssRNA) [Id_ii_S3_P4E.4_K4.3_C4.2_[T-1G]_H4.3_A4.1_F4.1_T4.2_[G10T]], the Kd was > 2.3 µM.
ACAAACAAACACUAUUAUGACAAAC (ssRNA) [Id_ii_S3_P4E.4_K4.3_C4.2_[C-2A]_[T-1A]_H4.3_A4.1_F4.1_T4.2_[G10T]_[T11G]] was tested, and the Kd was > 2.3 µM.
